Source: patent US20210079088A1 (published 2021)

T1: soluble human IL-4Rα (sIL-4Rα; PEPRO TECH, Catalog Number: 200-04R) (human, UniProt P24394 26-232)
T1 construct: Bought protein; also called shIL-4Rα; soluble hIL-4 Rα
T1 sequence: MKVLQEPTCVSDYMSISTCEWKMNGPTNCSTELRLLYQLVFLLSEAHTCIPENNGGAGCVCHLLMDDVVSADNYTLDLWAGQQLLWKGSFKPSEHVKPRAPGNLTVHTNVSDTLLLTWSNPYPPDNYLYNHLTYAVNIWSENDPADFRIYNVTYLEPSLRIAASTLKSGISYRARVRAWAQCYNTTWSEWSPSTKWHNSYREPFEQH


What follows are binders tested against T1, soluble human IL-4Rα (sIL-4Rα; PEPRO …) (assay: ELISA, coated sIL-4Rα, culture supernatant).
Method: Sample to be tested: For each antibody of the present invention, 10 μl and 2 μl of the culture supernatant of Expi293 cells expressing the antibody after transient transfection (the medium was Expi293 Expression Medium, Invitrogen, Catalog Number: A1435102; suspension culture was performed for 4 days at 100 rpm in a 8% CO2 incubator) were respectively added to 990 μl and 998 μl of PBS to prepare antibody samples to be tested of 1:100 and 1:500 dilutions.
100 μl of 100 μg/ml sIL-4Rα solution was added to 9.90 ml of PBS, mixed up and down, and then an antigen coating buffer of 1.0 μg/ml was obtained. The prepared antigen coating buffer was added to a 96-well ELISA plate (Corning) with a volume of 100 μl per well. The 96-well ELISA plate was incubated overnight in a refrigerator at 4° C. On the next day, the solution therein was discarded, and PBS containing 2% BSA was added to the 96-well ELISA plate row by row with a volume of 300 μl per well. The 96-well ELISA plate was incubated for 2 hours in a refrigerator at 4° C. Then the PBS containing 2% BSA was discarded and the plate was washed 3 times with PBST. Diluted antibodies to be tested were sequentially added to the corresponding wells, while the normal cell culture supernatants, as negative control samples, were added too. Three duplicate wells were made for each sample with a volume of 100 μl per well. The ELISA plate was wrapped with preservative film (or covered) and incubated for 1 h at 10° C. in a constant temperature incubator. Subsequently, the 96-well ELISA plate was taken out, and the solution therein was discarded. After washing with PBST for 3 times, TMB solution (Solarbio, Catalog Number: PR1200) was added to the 96-well ELISA plate row by row with a volume of 100 μl per well. The 96-well ELISA plate was placed at room temperature for 5 minutes, and 2 M H2SO4 solution was added in immediately to terminate the reaction. The 96-well ELISA plate was placed in flexstation 3 (Molecular Devices), the values of OD450 were read, and the data were collected, calculated and analyzed. Results were expressed relative to the affinity of control antibody 1.

| Binder | OD450/OD450 Control antibody 1 |
| --- | --- |
| L1000H1007 (antibody, V domains shown) VH: EVQLVQSGGGLVHPGGSLRLSCAGSGFTFSRNAMFWVRQAPGKGLEWVSGIGTGGATSYADSVKGRFTISRDNAKNSLYLQMNSLRAEDMAVYYCARGRYYFDYWGQGTLVTVSS VL: not shown | 0.37 ratio to control antibody 1 |
| L1000H1009 (antibody, V domains shown) VH: EVQLVESGGGLVHPGGSLRLSCAGSGFTFSRNAMFWVRQAPGKGLEWVSGIGTGGATNYADSVKGRFTISRDNAKNSLYLQMNSLRAEDMAVYYCARGRYYFDYWGQGTLVTVSS VL: not shown | 0.56 ratio to control antibody 1 |
| L1000H1037 (antibody, V domains shown) VH: EVQLVQSGGGLVHPGGSLRLSCAGSGFTFSRNAMFWVRQAPGKGLEWVSGIGTGGATNYADSVKGRFTISRDEAKNSLYLQMNSLRAEDMAVYYCARGRYYFDYWGQGTLVTVSS VL: not shown | -0.01 ratio to control antibody 1 |
| L1000H1027 (antibody, V domains shown) VH: EVQLVESGGGLVHPGGSLRLSCAASGFTFSRNAMFWVRQAPGKGLEWVSGIGTGGATSYADSVKGRFTISRDNAKNSLYLQMNSLRAEDTAVYYCARGRYYFPWWGQGTLVTVSS VL: not shown | 0.44 ratio to control antibody 1 |
| L1000H1020 (antibody, V domains shown) VH: EVQLVQSGGGLVHPGGSLRLSCAGSGFTFSRNAMFWVRQAPGKGLEWVSGIGTGGATSYADSVKGRFTISRDNAKNSLYLQMNSLRAEDMAVYYCARGRYYFPWWGQGTLVTVSS VL: not shown | 0.23 ratio to control antibody 1 |
| L1000H1014 (antibody, V domains shown) VH: EVQLVQSGGGLVQPGGSLRLSCAASGFTFSRNAMFWVRQAPGKGLEWVSGIGTGGATNYADSVKGRFTISRDNAKNSLYLQMNSLRAEDMAVYYCARGRYYFDYWGQGTLVTVSS VL: not shown | 1.06 ratio to control antibody 1 |
| L1000H1023 (antibody, V domains shown) VH: EVQLVESGGGLVHPGGSLRLSCAGSGFTFSRNAMFWVRQAPGKGLEWVSGIGTGGATSYADSVKGRFTISRDNAKNSLYLQMNSLRAEDTAVYYCARGRYYFPWWGQGTLVTVSS VL: not shown | 0.63 ratio to control antibody 1 |
| L1000H1015 (antibody, V domains shown) VH: EVQLVESGGGLVQPGGSLRLSCAGSGFTFSRNAMFWVRQAPGKGLEWVSGIGTGGATNYADSVKGRFTISRDNAKNSLYLQMNSLRAEDMAVYYCARGRYYFDYWGQGTLVTVSS VL: not shown | 0.65 ratio to control antibody 1 |
| L1000H1025 (antibody, V domains shown) VH: EVQLVQSGGGLVHPGGSLRLSCAASGFTFSRNAMFWVRQAPGKGLEWVSGIGTGGATSYADSVKGRFTISRDNAKNSLYLQMNSLRAEDTAVYYCARGRYYFPWWGQGTLVTVSS VL: not shown | 0.21 ratio to control antibody 1 |
| L1000H1010 (antibody, V domains shown) VH: EVQLVQSGGGLVQPGGSLRLSCAGSGFTFSRNAMFWVRQAPGKGLEWVSGIGTGGATNYADSVKGRFTISRDNAKNSLYLQMNSLRAEDMAVYYCARGRYYFDYWGQGTLVTVSS VL: not shown | 0.11 ratio to control antibody 1 |
| L1000H1022 (antibody, V domains shown) VH: EVQLVQSGGGLVHPGGSLRLSCAGSGFTFSRNAMFWVRQAPGKGLEWVSGIGTGGATSYADSVKGRFTISRDNAKNSLYLQMNSLRAEDTAVYYCARGRYYFPWWGQGTLVTVSS VL: not shown | 0.18 ratio to control antibody 1 |
| L1000H1024 (antibody, V domains shown) VH: EVQLVQSGGGLVQPGGSLRLSCAGSGFTFSRNAMFWVRQAPGKGLEWVSGIGTGGATSYADSVKGRFTISRDNAKNSLYLQMNSLRAEDTAVYYCARGRYYFPWWGQGTLVTVSS VL: not shown | 0.26 ratio to control antibody 1 |
| L1000H1036 (antibody, V domains shown) VH: EVQLVQSGGGLVHPGGSLRLSCAGSGFTFSRNAMFWVRQAPGEGLEWVSGIGTGGATNYADSVKGRFTISRDNAKNSLYLQMNSLRAEDMAVYYCARGRYYFDYWGQGTLVTVSS VL: not shown | 0.1 ratio to control antibody 1 |
| L1000H1001 (antibody, V domains shown) VH: EVQLVESGGGLVQPGGSLRLSCAASGFTFSRNAMFWVRQAPGKGLEWVSGIGTGGATSYADSVKGRFTISRDNAKNSLYLQMNSLRAEDTAVYYCARGRYYFPWWGQGTLVTVSS VL: not shown | 0.7 ratio to control antibody 1 |
| L1000H1032 (antibody, V domains shown) VH: EVQLVESGGGLVQPGGSLRLSCAASGFTFSRNAMFWVRQAPGKGLEWVSGIGTGGATNYADSVKGRFTISRDNAKNSLYLQMNSLRAEDMAVYYCARGRYYFPWWGQGTLVTVSS VL: not shown | 0.53 ratio to control antibody 1 |
| L1000H1016 (antibody, V domains shown) VH: EVQLVQSGGGLVHPGGSLRLSCAGSGFTFSRNAMFWVRQAPGKGLEWVSGIGTGGATNYADSVKGRFTISRDNAKNSLYLQMNSLRAEDMAVYYCARGRYYFPWWGQGTLVTVSS VL: not shown | 0.61 ratio to control antibody 1 |
| L1000H1021 (antibody, V domains shown) VH: EVQLVQSGGGLVHPGGSLRLSCAGSGFTFSRNAMFWVRQAPGKGLEWVSGIGTGGATNYADSVKGRFTISRDNAKNSLYLQMNSLRAEDTAVYYCARGRYYFPWWGQGTLVTVSS VL: not shown | 0.35 ratio to control antibody 1 |
| L1000H1031 (antibody, V domains shown) VH: EVQLVESGGGLVQPGGSLRLSCAASGFTFSRNAMFWVRQAPGKGLEWVSGIGTGGATSYADSVKGRFTISRDNAKNSLYLQMNSLRAEDTAVYYCARGRYYFDYWGQGTLVTVSS VL: not shown | 1.14 ratio to control antibody 1 |
| L1000H1029 (antibody, V domains shown) VH: EVQLVESGGGLVQPGGSLRLSCAASGFTFSRNAMFWVRQAPGKGLEWVSGIGTGGATSYADSVKGRFTISRDNAKNSLYLQMNSLRAEDMAVYYCARGRYYFPWWGQGTLVTVSS VL: not shown | 0.8 ratio to control antibody 1 |
| L1000H1008 (antibody, V domains shown) VH: EVQLVQSGGGLVHPGGSLRLSCAGSGFTFSRNAMFWVRQAPGKGLEWVSGIGTGGATNYADSVKGRFTISRDNAKNSLYLQMNSLRAEDTAVYYCARGRYYFDYWGQGTLVTVSS VL: not shown | 0.21 ratio to control antibody 1 |
| L1000H1013 (antibody, V domains shown) VH: EVQLVESGGGLVHPGGSLRLSCAASGFTFSRNAMFWVRQAPGKGLEWVSGIGTGGATNYADSVKGRFTISRDNAKNSLYLQMNSLRAEDMAVYYCARGRYYFDYWGQGTLVTVSS VL: not shown | 0.38 ratio to control antibody 1 |
| L1000H1028 (antibody, V domains shown) VH: EVQLVQSGGGLVQPGGSLRLSCAASGFTFSRNAMFWVRQAPGKGLEWVSGIGTGGATSYADSVKGRFTISRDNAKNSLYLQMNSLRAEDTAVYYCARGRYYFPWWGQGTLVTVSS VL: not shown | 0.33 ratio to control antibody 1 |
| L1000H1026 (antibody, V domains shown) VH: EVQLVESGGGLVQPGGSLRLSCAGSGFTFSRNAMFWVRQAPGKGLEWVSGIGTGGATSYADSVKGRFTISRDNAKNSLYLQMNSLRAEDTAVYYCARGRYYFPWWGQGTLVTVSS VL: not shown | 0.11 ratio to control antibody 1 |
| L1000H1035 (antibody, V domains shown) VH: EVQLVQSGGGLVHPGGSLRLSCAGSGFTFSRNAMHWVRQAPGKGLEWVSGIGTGGATNYADSVKGRFTISRDNAKNSLYLQMNSLRAEDMAVYYCARGRYYFDYWGQGTLVTVSS VL: not shown | 0.22 ratio to control antibody 1 |
| L1000H1030 (antibody, V domains shown) VH: EVQLVESGGGLVQPGGSLRLSCAASGFTFSRNAMFWVRQAPGKGLEWVSGIGTGGATNYADSVKGRFTISRDNAKNSLYLQMNSLRAEDTAVYYCARGRYYFPWWGQGTLVTVSS VL: not shown | 0.2 ratio to control antibody 1 |
| L1000H1012 (antibody, V domains shown) VH: EVQLVQSGGGLVHPGGSLRLSCAGSGFTFSRNAMFWVRQAPGKGLEWVSGIGTGGATSYADSVKGRFTISRDNAKNSLYLQMNSLRAEDTAVYYCARGRYYFDYWGQGTLVTVSS VL: not shown | 0.18 ratio to control antibody 1 |
